Measured values as given in patent EP1126866B1 (The Regents of the University of California, dated 2007).

Biological target: rat cardiac SR Ca2+ ATPase (SERCA2a), endogenous in rat cardiomyocytes (rat, UniProt P11507 1-1043)
Assay: cell-based or functional assay

rat cardiac SR Ca2+ ATPase (SERCA2a), endogenous in rat cardiomyocytes, sequence (P11507 whole entry): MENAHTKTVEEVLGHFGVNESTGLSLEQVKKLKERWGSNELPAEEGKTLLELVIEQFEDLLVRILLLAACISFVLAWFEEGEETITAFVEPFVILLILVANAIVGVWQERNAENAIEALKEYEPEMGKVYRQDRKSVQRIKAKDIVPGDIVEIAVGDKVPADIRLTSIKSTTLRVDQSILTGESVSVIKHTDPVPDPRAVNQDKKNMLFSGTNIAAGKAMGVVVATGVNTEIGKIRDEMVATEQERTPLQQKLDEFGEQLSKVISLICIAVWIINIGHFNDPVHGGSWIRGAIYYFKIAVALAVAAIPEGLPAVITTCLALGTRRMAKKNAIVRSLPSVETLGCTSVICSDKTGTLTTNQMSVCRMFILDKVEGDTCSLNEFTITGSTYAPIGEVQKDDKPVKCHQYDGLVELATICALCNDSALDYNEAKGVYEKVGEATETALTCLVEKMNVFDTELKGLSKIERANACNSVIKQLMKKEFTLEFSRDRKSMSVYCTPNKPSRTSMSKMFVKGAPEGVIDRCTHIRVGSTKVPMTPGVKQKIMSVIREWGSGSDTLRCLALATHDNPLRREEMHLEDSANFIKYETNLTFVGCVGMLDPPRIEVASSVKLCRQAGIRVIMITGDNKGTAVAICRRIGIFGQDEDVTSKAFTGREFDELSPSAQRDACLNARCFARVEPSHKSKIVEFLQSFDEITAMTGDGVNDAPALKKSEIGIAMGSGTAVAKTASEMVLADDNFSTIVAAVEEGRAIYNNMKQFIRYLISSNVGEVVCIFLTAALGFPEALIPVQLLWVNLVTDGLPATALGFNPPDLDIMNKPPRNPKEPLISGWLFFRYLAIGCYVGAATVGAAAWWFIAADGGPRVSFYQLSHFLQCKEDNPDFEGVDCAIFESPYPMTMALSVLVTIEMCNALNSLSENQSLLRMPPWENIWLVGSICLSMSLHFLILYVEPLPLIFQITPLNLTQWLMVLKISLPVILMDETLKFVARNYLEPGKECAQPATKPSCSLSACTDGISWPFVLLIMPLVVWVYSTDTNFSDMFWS

EC50 of Ca2+ concentration at which the SR Ca2+ uptake activity is half-maximal (neonatal rat myocytes): 110 nM
lowering of the EC50 of Ca2+ for SR Ca2+ uptake (adult rat myocytes): 36%
B1: K3E/R14E double point mutation of PLB (other)
chain: MEEVQYLTRSAIREASTIEMPQQARQKLQNLFINFCLILICLLLICIIVMLL
